Data published in patent publication US20100166775A1 (ACTIVE BIOTECH, published 2010).

B1: murine S100A8/S100A9 complex (other)
chain 1: PSELEKALSNLIDVYHNYSNIQGNHHALYKNDFKKMVTTECPQFVQNINIENLFRELDINSDNAINFEEFLAMVIKVGVASHKDSHKE
chain 2: ANKAPSQMERSITTIIDTFHQYSRKEGHPDTLSKKEFRQMVEAQLATFMKKEKRNEALINDIMEDLDTNQDNQLSFEECMMLMAKLIFACHEKLHENNPRGHGHSHGKGCGK
notes: Heterodimer; also called murine S100A8/A9; murine complex S100A8/A9
B2: murine S100A8 (other, UniProt P27005 2-89, looked up)
chain: B1 chain 1
notes: Concentration is based on the homodimeric molecular weight
B3: murine S100A9 (other, UniProt P31725 2-113, looked up)
chain: B1 chain 2
notes: as for B2
B4: human S100A12 (other, UniProt P80511 2-92, looked up)
chain: TKLEEHLEGIVNIFHQYSVRKGHFDTLSKGELKQLLTKELANTIKNIKDKAVIDEIFQGLDANQDEQVDFQEFISLVAIALKAAHYHTHKE
notes: also called S100Al2
B5: hS100A11 (other, human, UniProt P31949 1-105, looked up)
S100A11: MAKISSPTETERCIESLIAVFQKYAGKDGYNYTLSKTEFLSFMNTELAAFTKNQKDPGVLDRMMKKLDTNSDGQLDFSEFLNLIGGLAMACHDSFLKAVPSQKRT
notes: recombinant; also called recombinant human S100A11 (ProSpec TechnoGene)
B6: anti-S100A9 monoclonal antibody 43/8 (antibody, V domains shown)
VH: PELVKSGASVKISCKASGYSFTDYNINWVKQSNGKSLEWIGLINPNYGTTFYNQKFKGKATLTVDQSSSTAYMQLNSLTSEDSAVYYCARETLLLRYFDYWGQGTTLTVSS
VL: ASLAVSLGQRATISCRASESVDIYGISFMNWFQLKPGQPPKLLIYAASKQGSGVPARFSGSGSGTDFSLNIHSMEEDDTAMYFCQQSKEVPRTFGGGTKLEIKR
notes: Mouse monoclonal from an S100A9-null C57BL/6 mouse; also called anti-S100A9 mAb 43/8; mAb 43/8
B7: S100B (other, human, UniProt P04271 1-92, looked up)
chain: MSELEKAMVALIDVFHQYSGREGDKHKLKKSELKELINNELSHFLEEIKEQEVVDKVMETLDNDGDGECDFQEFMAFVAMVTTACHEFFEHE
notes: also called S100β; recombinant human S100β
B8: S100A1 (other, human, UniProt P23297 1-94, looked up)
chain: MGSELETAMETLINVFHAHSGKEGDKYKLSKKELKELLQTELSGFLDAQKDVDAVDKVMKELDENGDGEVDFQEYVVLVAALTVACNNFFWENS
notes: also called recombinant human S100A1
B9: human S100A8/S100A9 complex (other)
chain 1: MLTELEKALNSIIDVYHKYSLIKGNFHAVYRDDLKKLLETECPQYIRKKGADVWFKELDINTDGAVNFQEFLILVIKMGVAAHKKSHEESHKE
chain 2: MTCKMSQLERNIETIINTFHQYSVKLGHPDTLNQGEFKELVRKDLQNFLKKENKNEKVIEHIMEDLDTNADKQLSFEEFIMLMARLTWASHEKMHEGDEGPGHHHKPGLGEGTP
notes: Heterodimer; also called S100A8/A9; S100A8/9
B10: human S100A8 (other, UniProt P05109 1-93, looked up)
chain: B9 chain 1
notes: The source is 'produced recombinantly ... or obtained from elsewhere'
B11: recombinant human S100A9 (ligand)
chain: B9 chain 2
notes: Concentrations are based on the homodimeric molecular weight; Assays were run with Ca2+ and Zn2+; also called hS100A9; rhS100A9

What was measured:
[1] = target: T1, recombinant human RAGE/Fc chimera (R&D Systems cat. No. 1145-RG) (human, UniProt Q15109 23-344); test: SPR (Biacore), 200 nM protein over amine-coupled RAGE/Fc, 1 mM CaCl2 and 10 µM ZnCl2; Req or response at late association, not corrected for mass
T1 construct: Disulfide-linked homodimer expressed in NS0 cells, glycosylated and amine-coupled to a CM5 chip; also called rhRAGE-Fc; immobilized RAGE; not shown: peptide linker between RAGE and Fc; Fc region of human IgG1
T1 sequence (Q15109 23-344, change not shown): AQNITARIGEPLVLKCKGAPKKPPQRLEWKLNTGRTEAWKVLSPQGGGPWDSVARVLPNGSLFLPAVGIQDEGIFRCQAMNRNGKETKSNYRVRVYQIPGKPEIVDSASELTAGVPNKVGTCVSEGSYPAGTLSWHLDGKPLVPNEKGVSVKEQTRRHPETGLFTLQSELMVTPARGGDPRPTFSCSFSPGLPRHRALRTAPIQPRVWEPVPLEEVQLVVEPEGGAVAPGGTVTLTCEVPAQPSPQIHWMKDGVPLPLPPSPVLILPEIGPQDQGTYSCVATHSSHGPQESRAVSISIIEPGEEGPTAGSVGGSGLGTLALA
Procedure: (§1) Binding analysis was performed using the “surface plasmon resonance” (SPR) technology with a Biacore 3000™ system. This technology allows analysis of an interaction between proteins and small molecules in a real-time and label-free manner. A protein or low-molecular weight compound is injected over a surface (a CM5 sensor chip) with a covalently coupled ligand and the signal produced, expressed as resonance units (RU), is directly proportional to the number and mass of the molecule interacting with the ligand on the surface. Immobilization, regeneration scouting, surface performance tests and binding studies were conducted basically according to the instructions by the manufacturer. Kinetic evaluation of binding data was carried using the BIAevaluation Software Version 3.2 (Biacore AB). Optimization of conditions for immobilization and binding analysis is carried out for each interaction to be studied.
(§2) Recombinant human RAGE was obtained from R&D Systems (cat. No. 1145-RG) as a fusion protein of the extracellular domain of RAGE, comprising a.a. 1-344, and the Fc region of human IgG₁ via a peptide linker. The chimeric protein was expressed in the mouse myleoma cell line NSO as a disulfide-linked homo-dimeric protein with a calculated molecular mass of 61 kDa. Prior to covalent coupling to the sensor chip, buffer was changed to a standard Biacore buffer (10 mM Hepes, 0.15 M NaCl, pH 7.4, containing 0.005% v/v Surfactant P20; HBS-P) using Fast Protein Desalting Micro-Spin Columns (Pierce). RAGE was diluted in an immobilization buffer shown to give sufficient pre-concentration and then covalently coupled using the “Aim at immobilization level” function in the Biacore Wizard to obtain various coupling densities. Activity of immobilized RAGE was tested by injecting a specific anti-human RAGE monoclonal antibody over the surface.

[2] = target: T1, recombinant human RAGE/Fc chimera (R&D …); test: SPR (Biacore), 200 nM protein over amine-coupled RAGE/Fc, 1 mM CaCl2 and 10 µM ZnCl2
Procedure: as §1, §2

[3] = target: B11; test: SPR competition: 100 nM S100A9 pre-incubated with 12.5-500 nM 43/8, injected over immobilized RAGE-Fc; log-logit plot
Procedure: (§3) Binding data were transformed to a log-logit plot for calculation of IC₅₀ value.
The assay was performed by coating human RAGE on a standard CM5 chip at high density (3000 RU) using standard amine coupling.

[4] = target: B11; test: SPR competition: 100 nM S100A9 pre-incubated with 12.5-500 nM 43/8, injected over immobilized TLR4/MD-2; log-logit plot
Procedure: as §3
The assay was performed by coating human TLR4/MD-2 complex on a CM5 chip at a density of ˜3000 RU using standard amine coupling.

[5] = target: B11; test: SPR competition: 100 nM human S100A9 pre-incubated with 0-400 nM 43/8 or 1C10, injected over immobilized 43/8; reference 1C10
Procedure: Incubated samples were then injected for 3 min at a flow rate of 30 μl/min (1; association phase) followed by injection of sample buffer (2; dissociation phase). Responses were calculated at late association phase.

[6] = target: B11; test: SPR competition: 100 nM S100A9 pre-incubated with 12.5-500 nM 43/8, injected over immobilized amino-linked Compound A (a small molecule); log-logit plot
Procedure: The assay was performed by coating amino-linked Compound A on a CM5 chip using standard amine coupling.

[7] = target: T1, recombinant human RAGE/Fc chimera (R&D …); test: placeholder

Binder: B1
- binding result [1]: binds

Binder: B2
- binding result [2]: no binding (tested: 200 nM)

Binder: B3
- binding result [2]: no binding (tested: 200 nM)

Binder: B4
- binding result [1]: binds

Binder: B5
- binding result [2]: no binding (tested: 200 nM)

Binder: B6
- IC50 [3]: 34 nM
- IC50 [4]: 27 nM
- fold higher inhibition of S100A9 binding to immobilized 43/8 than for antibody 1C10 [5]: > 10 fold
- IC50 [6]: 120 nM

Binder: B7
- binding result [2]: no binding (tested: 200 nM)

Binder: B8
- binding result [2]: no binding (tested: 200 nM)

Binder: B9
- binding result [1]: binds

Binder: B10
- binding result [2]: no binding (tested: 200 nM)

Binder: B11
- fold higher binding than the next group of RAGE binders (AnxII, S100A12, S100A8/9) [7]: 10 fold
